Measurements as given in US20250381223A1 (UTC THERAPEUTICS SHANGHAI, published 2025).

T1: CD123-Fc recombinant protein (human, UniProt P26951 19-305)
T1 construct: construct not described; not shown: Fc part
T1 sequence (looked up): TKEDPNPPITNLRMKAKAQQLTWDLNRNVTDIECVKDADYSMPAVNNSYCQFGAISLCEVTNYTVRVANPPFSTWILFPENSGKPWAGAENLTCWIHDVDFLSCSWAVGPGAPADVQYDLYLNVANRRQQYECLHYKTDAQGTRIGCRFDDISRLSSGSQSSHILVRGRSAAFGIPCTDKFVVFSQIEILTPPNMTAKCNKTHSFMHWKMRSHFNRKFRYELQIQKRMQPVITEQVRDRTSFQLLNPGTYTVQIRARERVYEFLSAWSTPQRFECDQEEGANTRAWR

B1: anti-CD123 scFv-C33 (scFv)
scFv: DIRLTQSPSSLSASVGDTITITCRASQDISSWIAWYQQKPGTAPRLLIYAASSLQSGVPSRFSGSGSGTDFTLTINSLHPEDFATYYCQQGSTFPLAFGGGTKVEIKGGGGSGGGGSGGGGSQVQLVQSGAEVKKPGSSVKVSCKASGGTFSSYAISWVRQAPGQGLEWMGGIIPIFGTANYAQKFQGRVTITADESTSTAYMELSSLRSEDTAVYYCARGLDNWNDVGWFDPWGQGTLVTVSS
notes: On mRNA-electroporated T cells as CAR
B2: anti-CD123 scFv-C24 (scFv)
scFv: DIQMTQSPSSLSASVGDRVTITCRASQSISSYLNWYQQKPGKAPKLLIHAASSLQSGVPSKFSGSGSGTDFTLTISSLQPEDFATYYCLQYKTYPYTFGPGTKVEIKGGGGSGGGGSGGGGSQVQLVQSGAEVKKPGSSVKVSCKASGGTFSSYAISWVRQAPGQGLEWMGGIIPIFGTANYAQKFQGRVTITADESTSTAYMELSSLRSEDTAVYYCARDSPSGSTNYYYYYMDVWGKGTTVTVSS
notes: as for B1
B3: anti-CD123 scFv-C27 (scFv)
scFv: EIVLTQSPGTVSLSPGERATLSCRASQRVSATYLAWYQQKPGQAPRLLMYGGSRRATGIPDRFSGSGSGTDFTLTIRRLEPEDSAVYYCQQYGSSPLTFGGGTKLEIKGGGGSGGGGSGGGGSQVQLVQSGSELKKPGASVKVSCKASGYTFTSYGISWVRQAPGQGLEWMGWISAYNGNTNYAQKLQGRVTMTTDTSTSTAYMELRSLRSDDTAVYYCARDPYDDYGGNSRDEEDAFDIWGQGTTVTVSS
notes: as for B1
B4: anti-CD123 scFv-C19 (scFv)
scFv: DIRMTQSPSSLSASVGDRVTITCRASQDIRHDLGWYQQKPGKAPSLLMYATSTLQSGVPSRFSGSGSGTHFTLTISSLKPEDSATYYCLQDGDYPLTFGGGTKLEIKGGGGSGGGGSGGGGSQVQLVQSGGGVVQPGRSLRLSCAASGFTFSSYGMHWVRQAPGKGLEWVAVISYDGSNKYYADSVKGRFTISRDNSKNTLYLQMNSLRAEDTAVYYCAKDPSLIQYYYYGMDVWGQGTMVTVSS
notes: as for B1
B5: anti-CD123 scFv-C21 (scFv)
scFv: QSVLTQPPSASGTPGQRVTISCSGSSSNVGGNPVYWYRQVPTAAPKLLVYGHNQRPPRDPDRFSGSKSGTSASLAISGLRSEDEADYYCAAWDDSLSGWVFGGGTELTVLGGGGSGGGGSGGGGSEVQLVESGGGLVQPGRSLRLSCAASGFTFDDYAMHWVRQAPGKGLEWVSGISWNSGSIGYADSVKGRFTISRDNAKNSLYLQMNSLRAEDTALYYCAKGRYVDIVATINDAFDIWGQGTMVTVSS
notes: as for B1
B6: anti-CD123 scFv-C29 (scFv)
scFv: QPVLTQPPSASGTPGQRVTISCSGSSSNIGSNYVYWYQQLPGTAPKLLIYRNNQRPSGVPDRFSGSKSGTSASLAISGLRSEDEADYYCAAWDDSLSGYVFGTGTKVTVLGGGGSGGGGSGGGGSEVHLVESGGGLVQPGRSLRLSCTASGFTFGDYAMSWVRQAPGKGLEWVGFIRSKAYGGTTEYAASVKGRFTISRDDSKSIAYLQMNSLKTEDTAVYYCTRDIGYYGSGSYSPFDYWGQGTLVTVSS
notes: as for B1
B7: anti-CD123 scFv-C26 (scFv)
scFv: QSVLTQPPSASGTPGQRVTISCSGSRSNIGSNTVSWYQQFPGTAPKLLIYLNNQRPSGVPDRFSGSKSGTSASLAISGLQSEDEAEYYCATWDDDLNGVFGGGTKLTVLGGGGSGGGGSGGGGSEVQLVESGGGLVQPGGSLRLSCAASGFTLSNFEMNWVRQAPGRGLEWVSYISATTSATSYADSVKGRFTISRDNAKNSLYLQMNSLRAEDTAVYYCARVRDGYNFGYYYYYMDVWGKGTTVTVSS
notes: as for B1
B8: huVH3huVL2 (antibody, human IgG1, kappa, V domains shown)
VH: QVQLQESGPGLVKPSETLSLTCTVSGFSLSDYGVHWVRQSPGKGLEWIGVIWAGGGTNYNSALKSRKTISKDNSKSQVSLKLSSVTAADTAVYYCARDKGYSYYYSMDYWGQGTTVTVSS
VL: DIQLTQSPSSLSASVGDRVTITCRASESVEYYVTSLMQWYQQKPGKAPKLLIFAASNVESGVPSRFSGSGSGTNFTLTISSVQPEDFATYFCQQSRKVPYTFGGGTKLEIKR
B9: huVH1huVL1 (antibody, human IgG1, kappa, V domains shown)
VH: QVKLQESGPGLVKPSETLSITCTVSGFSLSDYGVHWVRQSPGKGLEWLGVIWAGGGTNYNSALMSRKTISKDNSKSQVFLKMSSLTAADTAVYYCARDKGYSYYYSMDYWGQGTTVTVSS
VL: DIQLTQSPSSLSVSVGDRVTISCRASESVEYYVTSLMQWYQQKPGQAPKLLIFAASNVESGVPSRFSGSGSGTNFTLTISSVQEEDFAMYFCQQSRKVPYTFGGGTKLEIKR
notes: also called huVH1VL1; 9.3h11
B10: anti-CD123 scFv-C30 (scFv)
scFv: AIRLTQSPSSLSASVGDRVTITCQASQNINNYLNWYQQKSGKAPKLLIYDASNLEAGVPSRFSGSASGTDFTFTISSLQPEDIATYYCQQNDNLPLTFGQGTRLEIKGGGGSGGGGSGGGGSEVQLVESGGGVVRPGGSLRLSCAASGFTFGDYGMSWVRQAPGKGLEWVSGINWNGGSTGYADSVKGRFTISRDNAKNSLYLQMNSLRAEDTALYYCARDRAPDYGDYLQVGTTDYWGQGTLVTVSS
notes: as for B1
B11: anti-CD123 scFv-C23 (scFv)
scFv: DILMTQSPSSLSASVGDRVTITCQASQDISNYLNWYQQKPGKAPKLLIYDASNLETGVPSRFSGSGSGTGFSFTISSLQPEDFATYYCQQYGNLPLTFGGGTKLEIKGGGGSGGGGSGGGGSQVQLVQSGAEVKKPGASVKVSCKASGYTFTSYGISWVRQAPGQGLEWMGWISAYNGNTNYAQKLQGRVTMTTDTSTSTAYMELRSLRSDDTAVYYCARDRIAAAEVYYYYGMDVWGQGTTVTVSS
notes: as for B1
B12: anti-CD123 scFv-C32 (scFv)
scFv: QSVVTQPPSASGTPGQRVTISCSGSSSNIEGNTVSWYQQFPGAAPKLLIYSNSYRASGVPDRFSGSKSGTSASLAISELQSEDEADYYCSAWDDSLNGPVFGGGTKVTVLGGGGSGGGGSGGGGSEVQLVESGGGLVQPGGSLRLSCAASGFTFTSYAMNWVRQAPGKGLEWVSDISSSSSYIYYADSVKGRFTISRDNAKNSLYLQMNSLRAEDTAVYYCARDLYSGYDYGYYYGMDVWGQGTTVTVSS
notes: as for B1
B13: anti-CD123 scFv-C34 (scFv)
scFv: QSALTQPPSASGSPGQSVTISCTGTRSDVGAYNYVSWYQHHPGKAPKLMLYDVSKRPSGVSDRFSGSKSGNTASLTVSGLQSEDEANYYCSSYAGSGKYVFGSGTELTVLGGGGSGGGGSGGGGSEVHLVESGGGLVKPGGSLRLSCAASGFTFSDTWMSWVRQAPGKGLEWVGRIKSKTDGGTTNYAAPVKGRFTISRDDSKTTLFLQMNSLKTEDTAVYYCTGGDYPLFAYWGQGALVTVSS
notes: as for B1

What was measured:
[1] = target: T1, CD123-Fc recombinant protein; experiment: flow cytometry of T cells electroporated with CAR mRNA, stained with CD123-Fc + PE-anti-hIgG-Fc; Mock 0.36
Experimental: The CD123 CAR mRNAs obtained in Example 35 above were each introduced into T cells by electroporation according to the following procedures: T cells were collected, washed with the Opti-MEM medium, and resuspended at 1×10e⁷/mL with the Opti-MEM medium; 10 μg of RNA and 100 μL of T cells were aliquoted, mixed well, and electroporated under the following parameters (BTX machine): 500 V, 0.7 ms; the cells were then transferred to a pre-warmed medium and cultured at 37° C. The binding of CD123 CART cells to the CD123-Fc recombinant protein was detected by FACS staining. […] Empty vector (Mock) was a control T cell without CAR molecule. A549 tumor cells were electroporated with different amounts of CD123 mRNA. The electroporation procedure was the same as described above, and only the parameters were changed, with the parameters 300 V, 0.5 ms used. CD123 expression in A549 tumor cells was detected by FACS staining of isotype or anti-CD123 antibodies and A549 cells electroporated with different amounts of CD123 mRNA. […] The cytotoxicity of CD123 CART cells against tumor cells was detected in an in vitro cytotoxicity assay. Tumor cells expressing EGFP or EGFP-A549 cells electroporated with different amounts of tumor antigen were seeded at 3000 cells/100 μL/well into a flat-bottom 96-well plate; CART cells were diluted to a proper concentration and seeded to the 100 μL/well tumor cells according to different E/T ratios (e.g., 10:1, 3:1, or 1:1), and the co-culture plate was placed into the IncuCyte S3 machine and scanning parameters were set. After scanning for 3 days, the total green object integrated intensity (GCU×μm²/well) was analyzed to calculate the killing efficiency.

[2] = target: T2, recombinant Human/Cynomolgus CD28 (N-6His) (Human/Cynomolgus, UniProt P10747 19-152); experiment: ELISA; plate coated with CD28 (N-6His) 2 µg/mL; HRP-anti-hFc
T2 construct: Bought protein; also called antigen CD28; not shown: 6His tag at the N-terminus (N-6His)
Experimental: The binding activity of the humanized antibody to the antigen CD28 was detected by the ELISA method. The experimental procedures were as follows: [0525] 1. 30 μL of recombinant Human/Cynomolgus CD28 (N-6His) (Suzhou Novoprotein Scientific Inc., C406) at a concentration of 2 μg/mL was added to each well of an ELISA plate, and the plate was incubated at 4° C. overnight. [0526] 2. The next day, the ELISA plate was washed 3 times with PBST (containing 0.05% Tween-20). [0527] 3. 250 μL of 5% skim milk powder (dissolved in PBS) was added to each well of the ELISA plate, and the plate was incubated at room temperature for 2 h. [0528] 4. The plate was washed 3 times with PBST, antibodies with different dilution ratios were added to the ELISA plate at 30 μL/well, and the plate was incubated at room temperature for 60 min. [0529] 5. The plate was washed 3 times with PBST, 30 μL of HRP-anti-hFc antibody was added to each well, and the plate was incubated at room temperature for 60 min. [0530] 6. The plate was washed 3 times with PBST, 30 μL of TMB was added to each well, and after color development at room temperature, 30 μL of 2 M H₂SO₄ was added to each well to stop the reaction. The plate was read at 450 nm.

[3] = target: T3, CD28 (detection antigen of the BLI assay) (human, UniProt P10747 19-152, limits assumed); experiment: BLI (GATOR); antibody loaded at 30 nM, antigen 300-37.5 nM
T3 construct: also called the antigen
Source text: The affinity kinetics of the humanized antibodies were detected using biolayer interferometry (BLI). The experimental procedures were as follows: [0533] 1. GATOR instrument was run, and the Kinetics experimental mode was selected. [0534] 2. The analysis program was run according to Table 5

Row | Binder | percent of cells in the CD123-Fc positive gate [1] | further results
1 | B1 | 58.5% | 
2 | B2 | 79.5% | 
3 | B3 | 47.8% | 
4 | B4 | 65.4% | 
5 | B5 | 78.6% | 
6 | B6 | 21.6% | 
7 | B7 | 73.4% | 
8 | B8 |  | EC50 [2]: 0.00914 mg/L; Kd [3]: 9.13 nM; koff [3]: 0.000782 s⁻¹; kon [3]: 85700 M⁻¹ s⁻¹
9 | B9 |  | EC50 [2]: 0.0151 mg/L; Kd [3]: 6.13 nM; koff [3]: 0.000531 s⁻¹; kon [3]: 86600 M⁻¹ s⁻¹
10 | B10 | 80.7% | 
11 | B11 | 81.8% | 
12 | B12 | 72.1% | 
13 | B13 | 90.3% | 
